In US20240383984A1 (Genentech, published 2024):

The binders below were run against T1, human FcRH5 protein fragment (soluble) (human, UniProt Q96RD9 16-851) (assay: BIACORE, human IgG1, soluble human FcRH5).
T1 construct: whole entry named; also called soluble human FcRH5; Human FcRH5 (BIACORE analyte)
T1 sequence: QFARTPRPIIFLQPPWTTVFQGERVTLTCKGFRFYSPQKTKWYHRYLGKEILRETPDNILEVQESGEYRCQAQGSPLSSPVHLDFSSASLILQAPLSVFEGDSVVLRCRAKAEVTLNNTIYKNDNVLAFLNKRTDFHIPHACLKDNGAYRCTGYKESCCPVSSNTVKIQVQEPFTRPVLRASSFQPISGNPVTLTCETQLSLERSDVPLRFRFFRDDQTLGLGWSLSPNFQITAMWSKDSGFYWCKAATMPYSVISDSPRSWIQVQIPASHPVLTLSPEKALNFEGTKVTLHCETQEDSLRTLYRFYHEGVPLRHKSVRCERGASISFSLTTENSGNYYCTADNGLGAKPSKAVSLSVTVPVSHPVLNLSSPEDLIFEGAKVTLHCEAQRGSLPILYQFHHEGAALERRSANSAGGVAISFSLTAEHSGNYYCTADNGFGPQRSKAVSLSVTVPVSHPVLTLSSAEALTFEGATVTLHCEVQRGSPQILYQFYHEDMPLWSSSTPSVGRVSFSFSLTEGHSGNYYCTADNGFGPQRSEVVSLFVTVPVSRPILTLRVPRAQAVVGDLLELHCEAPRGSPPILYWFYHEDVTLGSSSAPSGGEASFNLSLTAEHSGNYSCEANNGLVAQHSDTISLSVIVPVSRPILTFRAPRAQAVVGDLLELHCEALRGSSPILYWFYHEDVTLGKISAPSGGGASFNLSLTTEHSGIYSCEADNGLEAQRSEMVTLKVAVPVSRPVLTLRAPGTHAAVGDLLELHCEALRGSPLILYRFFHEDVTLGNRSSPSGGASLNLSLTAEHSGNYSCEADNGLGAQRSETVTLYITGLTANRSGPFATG

| Binder | Fold improvement over hu1G7.v1 | Kd |
| --- | --- | --- |
| 1G7.v1E (antibody, human IgG1, V domains shown, human IgG1 with the light chain of hu1G7.v1; also called E (hu1G7.v1 heavy chain V37Y)) VH: EVQLVESGPGLVKPSETLSLTCTVSGFSLTRFGVHWYRQPPGKGLEWLGVIWRGGSTDYNAAFMSRLTISKDNSKNQVSLKLSSVTAADTAVYYCSNHYYGSSDYALDNWGQGTLVTVSS VL: DIQMTQSPSSLSASVGDRVTITCKASQDVSNIVVWFQQKPGKSPKLLIYSASYRYTGVPSRFSGSGSGTDFTLTISSLQPEDFATYYCQQHYSSPYTFGQGTKVEIK | 1.3 fold | 11 nM |
| 1G7.v1G (antibody, human IgG1, V domains shown, human IgG1 with the light chain of hu1G7.v1; also called G (hu1G7.v1 heavy chain M64G)) VH: EVQLVESGPGLVKPSETLSLTCTVSGFSLTRFGVHWVRQPPGKGLEWLGVIWRGGSTDYNAAFGSRLTISKDNSKNQVSLKLSSVTAADTAVYYCSNHYYGSSDYALDNWGQGTLVTVSS VL: DIQMTQSPSSLSASVGDRVTITCKASQDVSNIVVWFQQKPGKSPKLLIYSASYRYTGVPSRFSGSGSGTDFTLTISSLQPEDFATYYCQQHYSSPYTFGQGTKVEIK | 1 fold | 14.4 nM |
| 1G7.v1I (antibody, human IgG1, V domains shown, human IgG1 with the light chain of hu1G7.v1; also called I (hu1G7.v1 heavy chain S65P)) VH: EVQLVESGPGLVKPSETLSLTCTVSGFSLTRFGVHWVRQPPGKGLEWLGVIWRGGSTDYNAAFMPRLTISKDNSKNQVSLKLSSVTAADTAVYYCSNHYYGSSDYALDNWGQGTLVTVSS VL: DIQMTQSPSSLSASVGDRVTITCKASQDVSNIVVWFQQKPGKSPKLLIYSASYRYTGVPSRFSGSGSGTDFTLTISSLQPEDFATYYCQQHYSSPYTFGQGTKVEIK | 0.9 fold | 16.2 nM |
| 1G7.v1F (antibody, human IgG1, V domains shown, human IgG1 with the light chain of hu1G7.v1; also called F (hu1G7.v1 heavy chain A61P)) VH: EVQLVESGPGLVKPSETLSLTCTVSGFSLTRFGVHWVRQPPGKGLEWLGVIWRGGSTDYNPAFMSRLTISKDNSKNQVSLKLSSVTAADTAVYYCSNHYYGSSDYALDNWGQGTLVTVSS VL: DIQMTQSPSSLSASVGDRVTITCKASQDVSNIVVWFQQKPGKSPKLLIYSASYRYTGVPSRFSGSGSGTDFTLTISSLQPEDFATYYCQQHYSSPYTFGQGTKVEIK | 1.2 fold | 11.7 nM |
| 1G7.v1H (antibody, human IgG1, V domains shown, human IgG1 with the light chain of hu1G7.v1; also called H (hu1G7.v1 heavy chain S65D)) VH: EVQLVESGPGLVKPSETLSLTCTVSGFSLTRFGVHWVRQPPGKGLEWLGVIWRGGSTDYNAAFMDRLTISKDNSKNQVSLKLSSVTAADTAVYYCSNHYYGSSDYALDNWGQGTLVTVSS VL: DIQMTQSPSSLSASVGDRVTITCKASQDVSNIVVWFQQKPGKSPKLLIYSASYRYTGVPSRFSGSGSGTDFTLTISSLQPEDFATYYCQQHYSSPYTFGQGTKVEIK | 1 fold | 15 nM |

Results, then the binder that gave them:

| Fold improvement over hu1G7.v1 | Kd | Binder |
| --- | --- | --- |
| 1 fold | 15 nM | 1G7.v1K (antibody, human IgG1, V domains shown, human IgG1 with the light chain of hu1G7.v1; also called K (hu1G7.v1 heavy chain S82bD)) VH: EVQLVESGPGLVKPSETLSLTCTVSGFSLTRFGVHWVRQPPGKGLEWLGVIWRGGSTDYNAAFMSRLTISKDNSKNQVSLKLSDVTAADTAVYYCSNHYYGSSDYALDNWGQGTLVTVSS VL: DIQMTQSPSSLSASVGDRVTITCKASQDVSNIVVWFQQKPGKSPKLLIYSASYRYTGVPSRFSGSGSGTDFTLTISSLQPEDFATYYCQQHYSSPYTFGQGTKVEIK |
| 3 fold | 4.8 nM | 1G7.v1L (antibody, human IgG1, V domains shown, human IgG1 with the light chain of hu1G7.v1; also called L (hu1G7.v1 heavy chain S100P)) VH: EVQLVESGPGLVKPSETLSLTCTVSGFSLTRFGVHWVRQPPGKGLEWLGVIWRGGSTDYNAAFMSRLTISKDNSKNQVSLKLSSVTAADTAVYYCSNHYYGSPDYALDNWGQGTLVTVSS VL: DIQMTQSPSSLSASVGDRVTITCKASQDVSNIVVWFQQKPGKSPKLLIYSASYRYTGVPSRFSGSGSGTDFTLTISSLQPEDFATYYCQQHYSSPYTFGQGTKVEIK |
| 1 fold | 15.3 nM | 1G7.v1J (antibody, human IgG1, V domains shown, human IgG1 with the light chain of hu1G7.v1; also called J (hu1G7.v1 heavy chain K81M)) VH: EVQLVESGPGLVKPSETLSLTCTVSGFSLTRFGVHWVRQPPGKGLEWLGVIWRGGSTDYNAAFMSRLTISKDNSKNQVSLMLSSVTAADTAVYYCSNHYYGSSDYALDNWGQGTLVTVSS VL: DIQMTQSPSSLSASVGDRVTITCKASQDVSNIVVWFQQKPGKSPKLLIYSASYRYTGVPSRFSGSGSGTDFTLTISSLQPEDFATYYCQQHYSSPYTFGQGTKVEIK |
